# What was measured:
# [1] = target: standard human trypsin sample enclosed in the Kodazyme Trypsin M·EIA kit (human); test: Kodazyme Trypsin M·EIA sandwich EIA, standard human trypsin 10 ng/ml
# [2] = target: standard human trypsin sample enclosed in the Kodazyme Trypsin M·EIA kit (human); test: Kodazyme Trypsin M·EIA sandwich EIA, standard human trypsin 50 ng/ml
# [3] = target: canine anionic trypsin (canine (dog)); test: Kodazyme Trypsin M·EIA sandwich EIA, canine anionic trypsin 25 ng/ml
# [4] = target: canine anionic trypsin (canine (dog)); test: Kodazyme Trypsin M·EIA sandwich EIA, canine anionic trypsin 50 ng/ml
# [5] = target: standard human trypsin sample enclosed in the Kodazyme Trypsin M·EIA kit (human); test: Kodazyme Trypsin M·EIA sandwich EIA, standard human trypsin 100 ng/ml
# [6] = target: standard human trypsin sample enclosed in the Kodazyme Trypsin M·EIA kit (human); test: Kodazyme Trypsin M·EIA sandwich EIA, standard human trypsin 200 ng/ml
# [7] = target: standard human trypsin sample enclosed in the Kodazyme Trypsin M·EIA kit (human); test: Kodazyme Trypsin M·EIA sandwich EIA, standard human trypsin 400 ng/ml
# [8] = target: standard human trypsin sample enclosed in the Kodazyme Trypsin M·EIA kit (human); test: Kodazyme Trypsin M·EIA sandwich EIA, standard human trypsin 600 ng/ml
# [9] = target: canine cationic trypsin (canine (dog)); test: Kodazyme Trypsin M·EIA sandwich EIA, canine cationic trypsin 25 ng/ml
# [10] = target: canine cationic trypsin (canine (dog)); test: Kodazyme Trypsin M·EIA sandwich EIA, canine cationic trypsin 50 ng/ml
# [11] = target: canine anionic trypsin (canine (dog)); test: Kodazyme Trypsin M·EIA sandwich EIA, canine anionic trypsin 100 ng/ml
# [12] = target: canine anionic trypsin (canine (dog)); test: Kodazyme Trypsin M·EIA sandwich EIA, canine anionic trypsin 200 ng/ml
# [13] = target: canine anionic trypsin (canine (dog)); test: Kodazyme Trypsin M·EIA sandwich EIA, canine anionic trypsin 400 ng/ml
# [14] = target: canine cationic trypsin (canine (dog)); test: Kodazyme Trypsin M·EIA sandwich EIA, canine cationic trypsin 100 ng/ml
# [15] = target: canine cationic trypsin (canine (dog)); test: Kodazyme Trypsin M·EIA sandwich EIA, canine cationic trypsin 200 ng/ml
# [16] = target: canine cationic trypsin (canine (dog)); test: Kodazyme Trypsin M·EIA sandwich EIA, canine cationic trypsin 400 ng/ml
# [17] = target: canine anionic trypsin (canine (dog)); test: Kodazyme Trypsin M·EIA sandwich EIA, canine anionic trypsin 12.5 ng/ml
# [18] = target: canine anionic trypsin (canine (dog)); test: Kodazyme Trypsin M·EIA sandwich EIA, canine anionic trypsin 6.25 ng/ml
# [19] = target: canine cationic trypsin (canine (dog)); test: Kodazyme Trypsin M·EIA sandwich EIA, canine cationic trypsin 12.5 ng/ml
# [20] = target: canine cationic trypsin (canine (dog)); test: Kodazyme Trypsin M·EIA sandwich EIA, canine cationic trypsin 6.25 ng/ml
# [21] = target: standard human trypsin sample enclosed in the Kodazyme Trypsin M·EIA kit (human); test: Kodazyme Trypsin M·EIA sandwich EIA, standard human trypsin 10 ng/ml, duplicate
# [22] = target: standard human trypsin sample enclosed in the Kodazyme Trypsin M·EIA kit (human); test: Kodazyme Trypsin M·EIA sandwich EIA, standard human trypsin 50 ng/ml, duplicate
# [23] = target: canine anionic trypsin (canine (dog)); test: Kodazyme Trypsin M·EIA sandwich EIA, canine anionic trypsin 25 ng/ml, duplicate
# [24] = target: canine anionic trypsin (canine (dog)); test: Kodazyme Trypsin M·EIA sandwich EIA, canine anionic trypsin 50 ng/ml, duplicate
# [25] = target: standard human trypsin sample enclosed in the Kodazyme Trypsin M·EIA kit (human); test: Kodazyme Trypsin M·EIA sandwich EIA, standard human trypsin 200 ng/ml, duplicate
# [26] = target: standard human trypsin sample enclosed in the Kodazyme Trypsin M·EIA kit (human); test: Kodazyme Trypsin M·EIA sandwich EIA, standard human trypsin 400 ng/ml, duplicate
# [27] = target: canine cationic trypsin (canine (dog)); test: Kodazyme Trypsin M·EIA sandwich EIA, canine cationic trypsin 25 ng/ml, duplicate
# [28] = target: canine cationic trypsin (canine (dog)); test: Kodazyme Trypsin M·EIA sandwich EIA, canine cationic trypsin 50 ng/ml, duplicate
# [29] = target: canine anionic trypsin (canine (dog)); test: Kodazyme Trypsin M·EIA sandwich EIA, canine anionic trypsin 100 ng/ml, duplicate
# [30] = target: canine anionic trypsin (canine (dog)); test: Kodazyme Trypsin M·EIA sandwich EIA, canine anionic trypsin 200 ng/ml, duplicate
# [31] = target: canine anionic trypsin (canine (dog)); test: Kodazyme Trypsin M·EIA sandwich EIA, canine anionic trypsin 400 ng/ml, duplicate
# [32] = target: canine cationic trypsin (canine (dog)); test: Kodazyme Trypsin M·EIA sandwich EIA, canine cationic trypsin 100 ng/ml, duplicate
# [33] = target: canine cationic trypsin (canine (dog)); test: Kodazyme Trypsin M·EIA sandwich EIA, canine cationic trypsin 200 ng/ml, duplicate
# [34] = target: canine cationic trypsin (canine (dog)); test: Kodazyme Trypsin M·EIA sandwich EIA, canine cationic trypsin 400 ng/ml, duplicate
# [35] = target: canine anionic trypsin (canine (dog)); test: Kodazyme Trypsin M·EIA sandwich EIA, canine anionic trypsin 12.5 ng/ml, duplicate
# [36] = target: canine anionic trypsin (canine (dog)); test: Kodazyme Trypsin M·EIA sandwich EIA, canine anionic trypsin 6.25 ng/ml, duplicate
# [37] = target: canine cationic trypsin (canine (dog)); test: Kodazyme Trypsin M·EIA sandwich EIA, canine cationic trypsin 12.5 ng/ml, duplicate
# [38] = target: canine cationic trypsin (canine (dog)); test: Kodazyme Trypsin M·EIA sandwich EIA, canine cationic trypsin 6.25 ng/ml, duplicate
substance,measurement,setting,value
human trypsin MAb of Kodazyme Trypsin M·EIA (antibody),A492,[1],0.065
same,A492,[2],0.224
same,A492,[3],0.023
same,A492,[4],0.021
same,A492,[5],0.399
same,A492,[6],0.538
same,A492,[7],1.15
same,A492,[8],1.58
same,A492,[9],0.023
same,A492,[10],0.017
same,A492,[11],0.02
same,A492,[12],0.023
same,A492,[13],0.032
same,A492,[14],0.029
same,A492,[15],0.017
same,A492,[16],0.021
same,A492,[17],0.02
same,A492,[18],0.023
same,A492,[19],0.021
same,A492,[20],0.048
same,A492,[21],0.131
same,A492,[22],0.202
same,A492,[23],0.021
same,A492,[24],0.02
same,A492,[25],0.697
same,A492,[26],0.953
same,A492,[27],0.018
same,A492,[28],0.017
same,A492,[29],0.022
same,A492,[30],0.019
same,A492,[31],0.038
same,A492,[32],0.019
same,A492,[33],0.015
same,A492,[34],0.019
same,A492,[35],0.024
same,A492,[36],0.023
same,A492,[37],0.019
same,A492,[38],0.019
